Data taken from IntAct's records for PubMed 31515488.

B1: Caspase-9 (Homo sapiens), P55211 (parent)
chain: MDEADRRLLRRCRLRLVEELQVDQLWDALLSRELFRPHMIEDIQRAGSGSRRDQARQLIIDLETRGSQALPLFISCLEDTGQDMLASFLRTNRQAAKLSKPTLENLTPVVLRPEIRKPEVLRPETPRPVDIGSGGFGDVGALESLRGNADLAYILSMEPCGHCLIINNVNFCRESGLRTRTGSNIDCEKLRRRFSSLHFMVEVKGDLTAKKMVLALLELAQQDHGALDCCVVVILSHGCQASHLQFPGAVYGTDGCPVSVEKIVNIFNGTSCPSLGGKPKLFFIQACGGEQKDHGFEVASTSPEDESPGSNPEPDATPFQEGLRTFDQLDAISSLPTPSDIFVSYSTFPGFVSWRDPKSGSWYVETLDDIFEQWAHSEDLQSLLLRVANAVSVKGIYKQMPGCFNFLRKKLFFKTS
B2: Vesicle transport protein SFT2B (Homo sapiens), O95562 (parent)
chain: MDKLKKVLSGQDTEDRSGLSEVVEASSLSWSTRIKGFIACFAIGILCSLLGTVLLWVPRKGLHLFAVFYTFGNIASIGSTIFLMGPVKQLKRMFEPTRLIATIMVLLCFALTLCSAFWWHNKGLALIFCILQSLALTWYSLSFIPFARDAVKKCFAVCLA
partner: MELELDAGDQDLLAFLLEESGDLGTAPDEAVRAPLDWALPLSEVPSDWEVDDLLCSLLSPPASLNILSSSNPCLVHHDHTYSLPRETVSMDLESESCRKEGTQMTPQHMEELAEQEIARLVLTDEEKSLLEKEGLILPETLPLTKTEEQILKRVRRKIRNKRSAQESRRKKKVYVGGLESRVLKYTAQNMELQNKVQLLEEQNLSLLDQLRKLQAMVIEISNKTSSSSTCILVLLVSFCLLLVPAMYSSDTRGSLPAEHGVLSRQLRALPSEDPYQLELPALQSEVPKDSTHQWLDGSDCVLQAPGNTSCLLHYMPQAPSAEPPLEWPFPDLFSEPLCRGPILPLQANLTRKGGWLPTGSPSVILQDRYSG
B3: Breast cancer metastasis-suppressor 1 (Homo sapiens), Q9HCU9 (parent)
chain: MPVQPPSKDTEEMEAEGDSAAEMNGEEEESEEERSGSQTESEEESSEMDDEDYERRRSECVSEMLDLEKQFSELKEKLFRERLSQLRLRLEEVGAERAPEYTEPLGGLQRSLKIRIQVAGIYKGFCLDVIRNKYECELQGAKQHLESEKLLLYDTLQGELQERIQRLEEDRQSLDLSSEWWDDKLHARGSSRSWDSLPPSKRKKAPLVSGPYIVYMLQEIDILEDWTAIKKARAAVSPQKRKSDGP
B4: GRIP and coiled-coil domain-containing protein 1 (Homo sapiens), Q96CN9 (parent)
chain: MEKFGMNFGGGPSKKDLLETIETQKKQLLQYQARLKDVVRAYKSLLKEKEALEASIKVLSVSHEADVGLAGVQLPGLTFPDSVDDRCSTHSEDSTGTATSLDTAASLTSTKGEFGVEDDRPARGPPPPKSEEASWSESGVSSSSGDGPFAGGEVDKRLHQLKTQLATLTSSLATVTQEKSRMEASYLADKKKMKQDLEDASNKAEEERARLEGELKGLQEQIAETKARLITQQHDRAQEQSDHALMLRELQKLLQEERTQRQDLELRLEETREALAGRAYAAEQMEGFELQTKQLTREVEELKSELQAIRDEKNQPDPRLQELQEEAARLKSHFQAQLQQEMRKTALAEDQLRQQSQVEEQRVAALENQISEVSELLGTYEKAKQKDQLAIQKLKERILQLDLENKTLALAASSRSPLDSHGEESSLDVNVLKDKMEKLKRLLQVAARKSQVTLDVEKLCDLEIMPSSEAADGEKATALYYQQELKQLKEEFERYKMRAQVVLKSKNTKDGNLGKELEAAQEQLAELKEKYISLRLSCEELEHQHQQEADDWKQELARLQQLHRQELERCQLDFRDRTLKLEEELHKQRDRALAVLTEKDLELEQLRSVALASGLPGRRSPVGGGGPGDPADTSSSDSLTQALQLAAANEPTFFLYAEQLARKEVEITSLRKQKHRLEVEVHQLQDRLLEEGERHREEVAALQSHIEKNIRDQSREGANLEYLKNIIYRFLTLPDSLGRQQTLTAILTILHFSPEEKQVIMRLPTSASWWPSGKR
partner: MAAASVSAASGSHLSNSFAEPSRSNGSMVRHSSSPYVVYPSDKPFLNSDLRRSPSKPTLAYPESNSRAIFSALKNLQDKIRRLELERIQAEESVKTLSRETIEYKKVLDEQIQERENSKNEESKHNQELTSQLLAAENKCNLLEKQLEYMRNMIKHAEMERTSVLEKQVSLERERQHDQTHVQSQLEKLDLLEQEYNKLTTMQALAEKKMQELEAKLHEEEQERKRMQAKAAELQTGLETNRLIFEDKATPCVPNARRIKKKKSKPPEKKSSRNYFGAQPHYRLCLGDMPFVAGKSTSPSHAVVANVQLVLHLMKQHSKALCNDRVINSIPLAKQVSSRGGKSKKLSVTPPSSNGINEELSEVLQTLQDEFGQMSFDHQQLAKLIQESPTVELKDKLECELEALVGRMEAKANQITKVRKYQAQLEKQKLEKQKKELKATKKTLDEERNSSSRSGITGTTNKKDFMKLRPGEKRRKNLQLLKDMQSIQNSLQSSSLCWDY
B5: Isoform 1 of Ras association domain-containing protein 2 (Homo sapiens), P50749-1 (parent)
chain: MDYSHQTSLVPCGQDKYISKNELLLHLKTYNLYYEGQNLQLRHREEEDEFIVEGLLNISWGLRRPIRLQMQDDNERIRPPPSSSSWHSGCNLGAQGTTLKPLTVPKVQISEVDAPPEGDQMPSSTDSRGLKPLQEDTPQLMRTRSDVGVRRRGNVRTPSDQRRIRRHRFSINGHFYNHKTSVFTPAYGSVTNVRINSTMTTPQVLKLLLNKFKIENSAEEFALYVVHTSGEKQKLKATDYPLIARILQGPCEQISKVFLMEKDQVEEVTYDVAQYIKFEMPVLKSFIQKLQEEEDREVKKLMRKYTVLRLMIRQRLEEIAETPATI
partner: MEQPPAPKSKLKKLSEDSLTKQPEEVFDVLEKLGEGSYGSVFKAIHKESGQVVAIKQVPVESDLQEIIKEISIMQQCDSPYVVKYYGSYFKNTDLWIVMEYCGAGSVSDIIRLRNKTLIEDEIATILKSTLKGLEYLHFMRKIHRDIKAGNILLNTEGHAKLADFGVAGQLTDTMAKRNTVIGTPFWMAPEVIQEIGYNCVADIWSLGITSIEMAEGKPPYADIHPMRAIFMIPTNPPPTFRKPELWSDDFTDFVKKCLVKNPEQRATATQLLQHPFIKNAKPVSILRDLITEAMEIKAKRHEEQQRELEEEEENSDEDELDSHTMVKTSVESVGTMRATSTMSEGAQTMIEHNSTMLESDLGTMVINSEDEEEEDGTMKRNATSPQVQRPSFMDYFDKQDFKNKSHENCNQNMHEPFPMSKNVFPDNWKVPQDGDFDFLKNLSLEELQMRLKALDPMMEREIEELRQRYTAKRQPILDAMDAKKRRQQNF
B6: E3 ubiquitin-protein ligase ARIH2 (Homo sapiens), O95376 (parent)
chain: MSVDMNSQGSDSNEEDYDPNCEEEEEEEEDDPGDIEDYYVGVASDVEQQGADAFDPEEYQFTCLTYKESEGALNEHMTSLASVLKVSHSVAKLILVNFHWQVSEILDRYKSNSAQLLVEARVQPNPSKHVPTSHPPHHCAVCMQFVRKENLLSLACQHQFCRSCWEQHCSVLVKDGVGVGVSCMAQDCPLRTPEDFVFPLLPNEELREKYRRYLFRDYVESHYQLQLCPGADCPMVIRVQEPRARRVQCNRCNEVFCFKCRQMYHAPTDCATIRKWLTKCADDSETANYISAHTKDCPKCNICIEKNGGCNHMQCSKCKHDFCWMCLGDWKTHGSEYYECSRYKENPDIVNQSQQAQAREALKKYLFYFERWENHNKSLQLEAQTYQRIHEKIQERVMNNLGTWIDWQYLQNAAKLLAKCRYTLQYTYPYAYYMESGPRKKLFEYQQAQLEAEIENLSWKVERADSYDRGDLENQMHIAEQRRRTLLKDFHDT
B7: Protein Dr1 (Homo sapiens), Q01658 (parent)
chain: MASSSGNDDDLTIPRAAINKMIKETLPNVRVANDARELVVNCCTEFIHLISSEANEICNKSEKKTISPEHVIQALESLGFGSYISEVKEVLQECKTVALKRRKASSRLENLGIPEEELLRQQQELFAKARQQQAELAQQEWLQMQQAAQQAQLAAASASASNQAGSSQDEEDDDDI

Variants of: B1
Conditions: with birc2_human BIRC2, Q13490
Sequence of birc2_human BIRC2, Q13490 (Q13490 whole entry): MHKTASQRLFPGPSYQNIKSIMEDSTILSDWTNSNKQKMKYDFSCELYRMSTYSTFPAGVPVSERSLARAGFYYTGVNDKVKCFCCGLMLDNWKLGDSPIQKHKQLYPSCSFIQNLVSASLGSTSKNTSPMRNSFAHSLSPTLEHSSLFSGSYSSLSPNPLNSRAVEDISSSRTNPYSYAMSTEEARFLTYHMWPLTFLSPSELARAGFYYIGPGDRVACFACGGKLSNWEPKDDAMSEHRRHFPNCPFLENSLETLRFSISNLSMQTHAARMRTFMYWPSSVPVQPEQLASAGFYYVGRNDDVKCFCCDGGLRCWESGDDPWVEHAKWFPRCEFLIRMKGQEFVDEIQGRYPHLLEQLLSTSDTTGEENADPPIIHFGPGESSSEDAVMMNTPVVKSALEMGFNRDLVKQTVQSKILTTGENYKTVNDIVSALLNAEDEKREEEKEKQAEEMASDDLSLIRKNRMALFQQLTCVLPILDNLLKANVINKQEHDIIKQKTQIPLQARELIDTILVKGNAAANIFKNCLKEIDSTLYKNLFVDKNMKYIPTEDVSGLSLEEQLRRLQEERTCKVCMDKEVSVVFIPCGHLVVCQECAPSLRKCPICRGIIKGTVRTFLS

effect of a mutation on the interaction	Variant
disrupting interaction strength	H237P
with no effect	P336S
disrupting interaction strength	T366N

Variants of: B1
Conditions: with xiap_human XIAP

effect of a mutation on the interaction	Variant
with no effect	P336S

Variants of: B2
Conditions: with creb3_human CREB3, O43889

effect of a mutation on the interaction	Variant
with no effect	T137M

Variants of: B3
Conditions: with cep70_human CEP70, Q8NHQ1
Sequence of cep70_human CEP70, Q8NHQ1 (Q8NHQ1 whole entry): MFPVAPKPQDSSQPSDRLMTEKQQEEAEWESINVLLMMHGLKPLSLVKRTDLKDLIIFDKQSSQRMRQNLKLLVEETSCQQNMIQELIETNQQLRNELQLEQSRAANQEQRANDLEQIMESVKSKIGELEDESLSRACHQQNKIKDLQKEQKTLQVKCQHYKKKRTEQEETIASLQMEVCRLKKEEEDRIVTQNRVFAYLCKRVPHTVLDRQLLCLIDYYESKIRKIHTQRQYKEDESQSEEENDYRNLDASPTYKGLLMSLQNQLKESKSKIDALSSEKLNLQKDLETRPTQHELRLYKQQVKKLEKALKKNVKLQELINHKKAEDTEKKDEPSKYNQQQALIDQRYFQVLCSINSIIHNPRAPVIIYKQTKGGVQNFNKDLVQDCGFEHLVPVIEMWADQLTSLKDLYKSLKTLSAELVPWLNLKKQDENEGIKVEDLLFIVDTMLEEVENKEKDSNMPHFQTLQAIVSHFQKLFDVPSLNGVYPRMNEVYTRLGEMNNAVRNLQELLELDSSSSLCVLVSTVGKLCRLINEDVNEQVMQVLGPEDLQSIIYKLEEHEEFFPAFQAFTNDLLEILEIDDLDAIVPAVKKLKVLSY

effect of a mutation on the interaction	Variant
with no effect	S7G

Variants of: B4
Conditions: with cep57_human CEP57, Q86XR8

effect of a mutation on the interaction	Variant
with no effect	A274T

Variants of: B5
Conditions: with stk3_human STK3, Q13188

effect of a mutation on the interaction	Variant
with no effect	R144H

Variants of: B6
Conditions: with ub2l6_human UBE2L6, O14933
Sequence of ub2l6_human UBE2L6, O14933 (O14933 whole entry): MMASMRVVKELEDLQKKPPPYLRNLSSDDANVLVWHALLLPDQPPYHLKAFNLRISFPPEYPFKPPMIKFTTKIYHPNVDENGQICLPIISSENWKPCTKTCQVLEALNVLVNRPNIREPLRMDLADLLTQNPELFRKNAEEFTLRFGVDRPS

effect of a mutation on the interaction	Variant
with no effect	E29D

Variants of: B6
Conditions: with bub1_human BUB1, O43683
Sequence of bub1_human BUB1, O43683 (O43683 whole entry, looked up): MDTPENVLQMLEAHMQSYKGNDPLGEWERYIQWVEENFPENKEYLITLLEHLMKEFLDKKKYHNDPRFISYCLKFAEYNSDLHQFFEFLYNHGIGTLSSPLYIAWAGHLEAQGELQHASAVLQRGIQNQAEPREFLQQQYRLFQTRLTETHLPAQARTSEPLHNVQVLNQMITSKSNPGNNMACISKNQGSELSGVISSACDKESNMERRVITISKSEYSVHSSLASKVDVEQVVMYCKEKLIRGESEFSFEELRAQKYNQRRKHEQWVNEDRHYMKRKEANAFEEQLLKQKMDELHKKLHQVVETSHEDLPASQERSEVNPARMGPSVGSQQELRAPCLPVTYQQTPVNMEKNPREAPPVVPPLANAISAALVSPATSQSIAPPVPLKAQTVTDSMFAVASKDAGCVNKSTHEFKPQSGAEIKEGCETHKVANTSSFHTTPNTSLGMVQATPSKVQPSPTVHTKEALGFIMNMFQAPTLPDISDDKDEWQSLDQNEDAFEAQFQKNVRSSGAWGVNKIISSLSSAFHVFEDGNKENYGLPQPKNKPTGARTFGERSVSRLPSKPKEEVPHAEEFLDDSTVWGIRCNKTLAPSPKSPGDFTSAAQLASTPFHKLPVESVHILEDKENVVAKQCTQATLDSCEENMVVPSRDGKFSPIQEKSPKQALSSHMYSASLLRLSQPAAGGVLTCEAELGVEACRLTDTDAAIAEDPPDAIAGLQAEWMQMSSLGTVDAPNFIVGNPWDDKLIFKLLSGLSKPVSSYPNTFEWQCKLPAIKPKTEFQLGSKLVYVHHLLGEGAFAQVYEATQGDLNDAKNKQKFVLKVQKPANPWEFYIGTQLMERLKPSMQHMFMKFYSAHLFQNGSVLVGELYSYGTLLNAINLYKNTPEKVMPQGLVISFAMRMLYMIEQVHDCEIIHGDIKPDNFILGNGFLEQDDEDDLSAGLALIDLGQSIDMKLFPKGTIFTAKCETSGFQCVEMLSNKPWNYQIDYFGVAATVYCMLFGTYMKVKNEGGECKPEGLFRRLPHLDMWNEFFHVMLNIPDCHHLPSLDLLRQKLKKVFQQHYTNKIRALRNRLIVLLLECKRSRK

effect of a mutation on the interaction	Variant
with no effect	E29D

Variants of: B7
Conditions: with dpoe3_human POLE3, Q9NRF9
Sequence of dpoe3_human POLE3, Q9NRF9 (Q9NRF9 whole entry): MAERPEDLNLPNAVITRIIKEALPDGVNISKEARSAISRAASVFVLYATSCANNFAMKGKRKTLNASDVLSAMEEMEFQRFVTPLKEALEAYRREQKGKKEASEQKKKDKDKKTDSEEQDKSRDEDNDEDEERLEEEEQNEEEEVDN

effect of a mutation on the interaction	Variant
with no effect	E171D

Variants of: B7
Conditions: with tbp_human TBP

effect of a mutation on the interaction	Variant
with no effect	E171D
